Measurements: EP1379283B1, “IDENTIFICATION OF TARGET-SPECIFIC FOLDING SITES IN PEPTIDES AND PROTEINS” (Palatin Technologies, Inc., priority 2000, dated 2002)
One block for each binder: values may come before it. Square brackets hold non-standard residues; d marks the D form. Ends that are not written are not given here. * marks the point of attachment. Cyclohexylacetyl(1-SH) = O=C(CC1(S)CCCCC1)*; Cyclohexylacetyl = O=C(CC1CCCCC1)*; dChg = N[C@@H](C(=O)O)C1CCCCC1; Chg = N[C@H](C(=O)O)C1CCCCC1; Nle = CCCC[C@H](N)C(=O)O; Orn = NCCC[C@H](N)C(=O)O; Dap = NC[C@H](N)C(=O)O

What was measured:
[1] = target: vasopressin-1 receptor of rat liver cell membranes (rat) (UniProt P30560); test: competition with 3H-vasopressin-1 antagonist on rat liver membranes, metallopeptide at 1 µM
vasopressin-1 receptor of rat liver cell membranes (rat), sequence (P30560 whole entry): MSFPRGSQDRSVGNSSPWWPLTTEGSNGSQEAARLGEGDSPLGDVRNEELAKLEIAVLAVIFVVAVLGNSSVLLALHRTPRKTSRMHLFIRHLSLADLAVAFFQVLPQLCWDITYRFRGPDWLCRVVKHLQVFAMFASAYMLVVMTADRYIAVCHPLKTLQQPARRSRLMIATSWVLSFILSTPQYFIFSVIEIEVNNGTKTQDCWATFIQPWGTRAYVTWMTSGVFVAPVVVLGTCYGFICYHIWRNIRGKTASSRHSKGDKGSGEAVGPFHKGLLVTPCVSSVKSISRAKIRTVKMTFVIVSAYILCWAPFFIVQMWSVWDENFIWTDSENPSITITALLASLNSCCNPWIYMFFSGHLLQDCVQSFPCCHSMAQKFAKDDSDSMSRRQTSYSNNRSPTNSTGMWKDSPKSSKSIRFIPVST

[2] = target: oxytocin receptor of rat uterus cell membranes (rat) (UniProt P70536); test: competition with 3H-oxytocin on rat uterus membranes, metallopeptide at 1 µM
oxytocin receptor of rat uterus cell membranes (rat), sequence (P70536 whole entry): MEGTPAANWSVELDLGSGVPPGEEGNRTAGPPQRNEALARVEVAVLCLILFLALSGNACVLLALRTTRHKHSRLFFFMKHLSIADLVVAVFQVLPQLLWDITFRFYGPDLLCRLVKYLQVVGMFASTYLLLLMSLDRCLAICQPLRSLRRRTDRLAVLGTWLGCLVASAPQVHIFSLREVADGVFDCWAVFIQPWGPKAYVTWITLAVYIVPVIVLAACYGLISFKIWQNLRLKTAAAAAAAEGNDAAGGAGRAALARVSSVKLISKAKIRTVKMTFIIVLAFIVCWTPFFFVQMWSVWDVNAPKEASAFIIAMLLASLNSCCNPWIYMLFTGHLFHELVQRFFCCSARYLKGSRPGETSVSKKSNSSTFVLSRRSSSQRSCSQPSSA

[3] = target: MC1-R of B-16 mouse melanoma cells (mouse) (UniProt Q01727); test: competition with 0.4 nM 125I-NDP-alpha-MSH on B-16 mouse melanoma cell membranes, metallopeptide at 1 µM
MC1-R of B-16 mouse melanoma cells (mouse), sequence (Q01727 whole entry): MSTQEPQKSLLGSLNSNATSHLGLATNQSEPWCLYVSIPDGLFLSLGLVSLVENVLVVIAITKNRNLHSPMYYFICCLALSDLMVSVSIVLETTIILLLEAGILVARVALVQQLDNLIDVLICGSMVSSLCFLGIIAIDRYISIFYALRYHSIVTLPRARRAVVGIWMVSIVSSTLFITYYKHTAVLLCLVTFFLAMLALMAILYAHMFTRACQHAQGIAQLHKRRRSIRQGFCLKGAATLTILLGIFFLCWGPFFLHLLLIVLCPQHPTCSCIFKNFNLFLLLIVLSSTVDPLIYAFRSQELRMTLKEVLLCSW

hMC4-R (human) = hMC4-R (human) (UniProt P32245); test: competition with 0.4 nM 125I-NDP-alpha-MSH on hMC4-R membranes, metallopeptide at 1 µM
hMC4-R (human), sequence (P32245 whole entry): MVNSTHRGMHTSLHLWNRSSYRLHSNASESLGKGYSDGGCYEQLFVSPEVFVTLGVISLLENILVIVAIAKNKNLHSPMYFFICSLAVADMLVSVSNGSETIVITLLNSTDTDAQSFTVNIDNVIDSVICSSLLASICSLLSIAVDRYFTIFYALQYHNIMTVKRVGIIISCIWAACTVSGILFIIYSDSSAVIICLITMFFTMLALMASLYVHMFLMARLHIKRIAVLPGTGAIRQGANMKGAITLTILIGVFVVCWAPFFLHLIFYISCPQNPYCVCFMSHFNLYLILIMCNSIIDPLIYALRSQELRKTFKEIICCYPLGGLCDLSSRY

hMC3-R (human) = hMC3-R (human) (UniProt P41968); test: competition with 0.4 nM 125I-NDP-alpha-MSH on hMC3-R membranes, metallopeptide at 1 µM
hMC3-R (human), sequence (P41968 whole entry): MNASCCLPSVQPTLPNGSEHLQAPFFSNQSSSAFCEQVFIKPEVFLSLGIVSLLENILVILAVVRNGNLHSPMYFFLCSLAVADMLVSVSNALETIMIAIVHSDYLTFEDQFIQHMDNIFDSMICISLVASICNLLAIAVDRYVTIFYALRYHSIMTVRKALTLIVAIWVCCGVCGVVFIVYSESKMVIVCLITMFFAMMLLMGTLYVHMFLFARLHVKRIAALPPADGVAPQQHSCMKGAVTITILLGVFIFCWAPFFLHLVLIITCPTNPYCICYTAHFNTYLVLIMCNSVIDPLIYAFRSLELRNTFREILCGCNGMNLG

hMC5-R (human) = hMC5-R (human) (UniProt P33032); test: competition with 0.4 nM 125I-NDP-alpha-MSH on hMC5-R membranes, metallopeptide at 1 µM
hMC5-R (human), sequence (P33032 whole entry): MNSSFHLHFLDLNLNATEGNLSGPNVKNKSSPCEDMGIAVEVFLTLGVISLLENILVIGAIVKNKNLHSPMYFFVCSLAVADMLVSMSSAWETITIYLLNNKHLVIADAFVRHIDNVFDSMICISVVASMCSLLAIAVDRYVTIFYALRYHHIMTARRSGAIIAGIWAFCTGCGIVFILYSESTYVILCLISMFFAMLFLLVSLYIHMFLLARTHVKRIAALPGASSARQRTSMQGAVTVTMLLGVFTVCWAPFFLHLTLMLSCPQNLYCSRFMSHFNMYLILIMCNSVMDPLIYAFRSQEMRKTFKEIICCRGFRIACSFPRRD

% Inhibition at 1 µM [1]: 0% | % Inhibition at 1 µM [2]: 0%
B3: Re-complexed Chg-D-Trp-Cys-Ile-Thr-Dap-Ala-Pro-Orn-NH2 (peptide)
peptide: [Chg][dW]CIT[Dap]AP[Orn]-NH2
modifications: not fully specified (bridges); printed as Re-complexed Chg-D-Trp-Cys-Ile-Thr-Dap-Ala-Pro-Orn-NH2; also: Cys3 complexed to rhenium-oxo (Re=O)

% Inhibition at 1 µM [1]: 0% | % Inhibition at 1 µM [2]: 0%
B5: Re-complexed Caca-D-Trp-Ile-Thr-Dap-Ala-Ala-Cys-Orn-NH2 (peptide)
peptide: Cyclohexylacetyl-[dW]IT[Dap]AAC[Orn]-NH2
modifications: numbers in words are those of the source; also: rhenium-oxo (Re(V)=O) complex at Cys8

% Inhibition at 1 µM [1]: 0% | % Inhibition at 1 µM [2]: 0%
B6: Re-complexed Caca-D-Trp-Ile-Thr-Dap-Ala-Cys-Pro-Orn-NH2 (peptide)
peptide: Cyclohexylacetyl-[dW]IT[Dap]ACP[Orn]-NH2
modifications: not fully specified (bridges); printed as Caca-D-Trp-Ile-Thr-*Dap-Ala-Cys*-Pro-Orn-NH₂; numbers in words are those of the source; also: Cys7 complexed to rhenium-oxo (Re=O)

% Inhibition at 1 µM [1]: 22% | % Inhibition at 1 µM [2]: 9%
B10: Re-complexed Caca-D-Trp-Ile-Thr-Dap-Cys-Ala-Pro-Orn-NH2 (peptide)
peptide: Cyclohexylacetyl-[dW]IT[Dap]CAP[Orn]-NH2
modifications: not fully specified (bridges); printed as Caca-D-Trp-Ile-*Thr-Dap-Cys*-Ala-Pro-Orn-NH₂; numbers in words are those of the source; also: Cys6 complexed to rhenium-oxo (Re=O)

% Inhibition at 1 µM [1]: 0% | % Inhibition at 1 µM [2]: 0%
B12: Re-complexed Caca-D-Trp-Ile-Thr-Dap-Ala-Cys-Ala-Orn-NH2 (peptide)
peptide: Cyclohexylacetyl-[dW]IT[Dap]ACA[Orn]-NH2
modifications: not fully specified (bridges); printed as Caca-D-Trp-Ile-Thr-*Dap-Ala-Cys*-Ala-Orn-NH₂; numbers in words are those of the source; also: Cys7 complexed to rhenium-oxo (Re=O)

% Inhibition at 1 µM [1]: 8% | % Inhibition at 1 µM [2]: 0%
B13: Re-complexed D-Chg-D-Trp-Cys-Ile-Thr-Dap-Ala-Pro-Orn-NH2 (peptide)
peptide: [dChg][dW]CIT[Dap]AP[Orn]-NH2
modifications: bridge (positions not given here); not fully specified (bridges); printed as Re-complexed D-Chg-D-Trp-Cys-Ile-Thr-Dap-Ala-Pro-Orn-NH2; also: oxorhenium(V) metal complex

% Inhibition at 1 µM [1]: 23% | % Inhibition at 1 µM [2]: 0%
B14: Re-complexed Caca-D-Trp-Ile-Thr-Dap-Ala-Ala-Orn-Cys-NH2 (peptide)
peptide: Cyclohexylacetyl-[dW]IT[Dap]AA[Orn]C-NH2
modifications: numbers in words are those of the source; also: rhenium-oxo (Re(V)=O) complex at Cys9

% Inhibition at 1 µM [1]: 23% | % Inhibition at 1 µM [2]: 0%
B15: Re-complexed Pmp-D-Trp-Cys-Ile-Thr-Dap-Ala-Pro-Orn-NH2 (peptide)
peptide: {Cyclohexylacetyl(1-SH)}-[dW]CIT[Dap]AP[Orn]-NH2
modifications: not fully specified (bridges); printed as *Pmp-D-Trp-Cys*-Ile-Thr-Dap-Ala-Pro-Orn-NH₂; numbers in words are those of the source; also: Cys3 complexed to rhenium-oxo (Re=O)

Second part, the binder before the results:

B1: Re-complexed Caca-D-Trp-Ile-Thr-Cys-Dap-Ala-Pro-Orn-NH2 (peptide)
peptide: Cyclohexylacetyl-[dW]ITC[Dap]AP[Orn]-NH2
modifications: not fully specified (bridges); printed as Caca-D-Trp-*Ile-Thr-Cys*-Dap-Ala-Pro-Orn-NH₂; numbers in words are those of the source; also: Cys5 complexed to rhenium-oxo (Re=O)
% Inhibition at 1 µM [1]: 0% | % Inhibition at 1 µM [2]: 0%

B2: Re-complexed Ac-Nle-Ala-His-Cys-D-Phe-Arg-Trp-NH2 (peptide)
peptide: Ac-[Nle]AHC[dF]RW-NH2
modifications: bridge (positions not given here) via ReOCl3(PPh3)2; also: oxorhenium(V) metal complex
% Inhibition at 1 µM [3]: 84% | % Inhibition at 1 µM (hMC4-R (human)): 75% | % Inhibition at 1 µM (hMC3-R (human)): 9% | % Inhibition at 1 µM (hMC5-R (human)): 58%

B4: Re-complexed Caca-D-Trp-Ile-Cys-Thr-Dap-Ala-Pro-Orn-NH2 (peptide)
peptide: Cyclohexylacetyl-[dW]ICT[Dap]AP[Orn]-NH2
modifications: not fully specified (bridges); printed as Caca-D-*Trp-Ile-Cys*-Thr-Dap-Ala-Pro-Orn-NH₂; numbers in words are those of the source; also: Cys4 complexed to rhenium-oxo (Re=O)
% Inhibition at 1 µM [1]: 52% | % Inhibition at 1 µM [2]: 0%

B7: Re-complexed Ac-Nle-Ala-Cys-His-D-Phe-Arg-Trp-NH2 (peptide)
peptide: Ac-[Nle]ACH[dF]RW-NH2
modifications: bridge (positions not given here) via ReOCl3(PPh3)2; also: oxorhenium(V) N3S1 metal chelate (X-X-Cys)
% Inhibition at 1 µM [3]: 96% | % Inhibition at 1 µM (hMC4-R (human)): 71% | % Inhibition at 1 µM (hMC3-R (human)): 47% | % Inhibition at 1 µM (hMC5-R (human)): 64%

B8: Re-complexed Ac-Nle-Ala-His-D-Phe-Cys-Arg-Trp-NH2 (peptide)
peptide: Ac-[Nle]AH[dF]CRW-NH2
modifications: bridge (positions not given here) via ReOCl3(PPh3)2; also: oxorhenium(V) metal complex
% Inhibition at 1 µM [3]: 93% | % Inhibition at 1 µM (hMC4-R (human)): 66% | % Inhibition at 1 µM (hMC3-R (human)): 15% | % Inhibition at 1 µM (hMC5-R (human)): 57%

B9: Re-complexed Ac-Nle-Ala-His-D-Phe-Arg-Trp-Cys-NH2 (peptide)
peptide: Ac-[Nle]AH[dF]RWC-NH2
modifications: bridge (positions not given here) via ReOCl3(PPh3)2; also: oxorhenium(V) metal complex
% Inhibition at 1 µM [3]: 91% | % Inhibition at 1 µM (hMC4-R (human)): 98% | % Inhibition at 1 µM (hMC3-R (human)): 70% | % Inhibition at 1 µM (hMC5-R (human)): 93%

B11: Re-complexed Ac-Nle-Ala-His-D-Phe-Arg-Cys-Trp-NH2 (peptide)
peptide: XAHFRCW
modifications: N-terminal acetyl; X at 1 = Nle; D-Phe at 4; Cys 6 complexed to a rhenium-oxo (Re) metal ion; C-terminal amide
% Inhibition at 1 µM [3]: 96%
